Reference: patent US20140213523A1 (TIVORSAN PHARMACEUTICALS, published 2014)

Target: the molecule itself
Assay: Analytical ultracentrifugation (sedimentation velocity) at three concentrations, 20 mM Tris pH 8, 0.5 M NaCl, 20 °C; self-association of T2-rhBGN (M form to D form)
Protocol: FIG. 1. Analytical ultracentrifugation of HIC pool purified from CHO clone 57.
T2-rhBGN was purified from conditioned media of CHO clone 57 and 171 and HEK 293 clone 2 by a combination of anion exchange and hydrophobic interaction (HIC). Analytical ultracentrifugation (AUC) of HIC pool purified from CHO Clone 57 resolved into two sedimentation peaks: M with a sedimentation coefficient: s_{20,w}≈2.88 and D with coefficient s_{20,w}≈4.28 (FIG. 1). […] Experiments were performed at 20° C., in a Beckman Optima XL-I analytical ultracentrifuge. Spin Analytical charcoal upon 12 mm double-sector centerpieces were used in an eight-hole AN 50 Ti rotor at 45,000 rpm. Radial absorption scans were measured at λ=280 nm. Sedfit 12.44 was used for data analysis, with a 68% confidence limit (analyticalultracentrifugation.com). Sedimentation coefficients were corrected to standard s_{20,w} conditions using the experimental buffer density and buffer viscosity as calculated with […] (sednterp.unh.edu). Buffer: 20 mM Tris, pH 8, 0.5M NaCl; viscosity=0.01002 Poise; density=1.004989 g/mL. Partial specific volume, v-bar=0.74413 mL/g calculated from amino acid composition with Sednterp.

B1: T2-rhBGN (T2 recombinant human biglycan) (other)
chain: DEEAAGADTAGVLDPDSVTPTYSAMCPFGCHCHLRVVQCSDLGLKSVPKEISPDTTLLDLQNNDISELRKDDFKGLQHLYALVLVNNKISKIHEKAFSPLRKLQKLYISKNHLVEIPPNLPSSLVELRIHDNRIRKVPKGVFSGLRNMNCIEMGGNPLENSGFEPGAFDGLKLNYLRISEAKLTGIPKDLPETLNELHLDHNKIQAIELEDLLRYSKLYRLGLGHNQIRMIENGSLSFLPTLRELHLDNNKLARVPSGLPDLKLLQVVYLHSNNITKVGVNDFCPMGFGVKRAYYNGISLFNNPVPYWEVQPATFRCVTDRLAIQFGNYKK
modifications: N-linked glycans (M and D forms differ in N-glycan profile); no GAG side chains
notes: Purified from conditioned medium of CHO clone 57 by anion exchange and HIC; The pool is a mixture of the M form (generally monomeric) and the D form (generally dimeric); No tags are stated; also called HIC pool; M-rhBGN
Kd: ~50 µM
